± gives the standard deviation of the averaged measurements.
System: ATP
Test: switch fluorescence ratio, 500 uM ATP over buffer (Cy3 cluster intensity, sum of 5 cycles each) (fold (ratio)); higher = stronger signal-on switching upon ATP binding; sequences stand for … in TCGTCGGCAGCGTCAGATGTGTATAAGAGACAGTTTTTTTTTTTTTTTTTTTTTTTTT…TC
Conditions: aptamer strand: ATP DNA aptamer (quencher-CACCTGGGGGAGTATTGCGGAGGAAGG + anchor), 100 nM annealed; ATP concentration: 500 uM
Method in brief: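 Between each of five buffer/ATP cycles, the flow-cell was stripped with NaOH and re-annealed. Each cycle imaged Cy3-labelled switching-strand clusters, annealed to 100 nM quencher-labelled ATP aptamer on a modified Illumina MiSeq flow-cell, first in selection buffer and then after 15 min with 500 uM ATP at 22 °C. The fluorescence ratio is summed target-cycle over summed buffer-cycle Cy3 intensity per cluster, averaged per switch-domain sequence, with clusters outside 100-1000 RFU excluded.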
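Also: ATP exposure 15 min at 22 °C before imaging.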

CTAATGGAAA
switch fluorescence ratio: 0.998 ± 0.026

CTAATGGACA
switch fluorescence ratio: 1.01 ± 0.025

CTAATTTAGT
switch fluorescence ratio: 1.01 ± 0.014

CTAATTTTTC
switch fluorescence ratio: 0.9878 ± 0.0026

CTACAAAAAA
switch fluorescence ratio: 1.02 ± 0.034

CTACATCTTA
switch fluorescence ratio: 1.02 ± 0.018

CTACGGGGCT
switch fluorescence ratio: 1.01 ± 0.02

CTACGTTGGA
switch fluorescence ratio: 1.03 ± 0.02

CTACTAATTA
switch fluorescence ratio: 1.026 ± 0.0031

CTACTGCCGT
switch fluorescence ratio: 1.02 ± 0.034

CTACTTTTTT
switch fluorescence ratio: 1.01 ± 0.023

CTAGCACGGA
switch fluorescence ratio: 0.9713 ± 0.0093

CTAGCATGGG
switch fluorescence ratio: 0.999 ± 0.029

CTAGCTGACC
switch fluorescence ratio: 1.11 ± 0.046

CTAGCTGCGA
switch fluorescence ratio: 1.08 ± 0.055

CTAGCTGTAG
switch fluorescence ratio: 1.04 ± 0.03

CTAGGAGGGC
switch fluorescence ratio: 1 ± 0.027

CTAGGATCTA
switch fluorescence ratio: 0.996 ± 0.062

CTAGGCCGGG
switch fluorescence ratio: 0.98 ± 0.025

CTAGGCTAGG
switch fluorescence ratio: 0.9885 ± 0.0012

CTAGGGAAAG
switch fluorescence ratio: 0.989 ± 0.057

CTAGGGCATA
switch fluorescence ratio: 1.05 ± 0.047

CTAGGGCGGA
switch fluorescence ratio: 1.01 ± 0.021

CTAGGGGAGA
switch fluorescence ratio: 1.018 ± 0.0038

CTAGGGGGGA
switch fluorescence ratio: 0.997 ± 0.0052

CTAGGTAAAC
switch fluorescence ratio: 1.06 ± 0.012

CTAGGTACTT
switch fluorescence ratio: 1.03 ± 0.037

CTAGGTGATC
switch fluorescence ratio: 1.07 ± 0.044

CTAGGTGCAA
switch fluorescence ratio: 1.19 ± 0.091

CTAGGTTCTG
switch fluorescence ratio: 1.015 ± 0.0043

CTAGTAAAGT
switch fluorescence ratio: 0.977 ± 0.037

CTAGTATGGA
switch fluorescence ratio: 1.02 ± 0.031

CTAGTTAAAC
switch fluorescence ratio: 1.01 ± 0.02

CTAGTTGATG
switch fluorescence ratio: 0.991 ± 0.022

CTAGTTGGAT
switch fluorescence ratio: 0.9908 ± 0.0053

CTAGTTTGAG
switch fluorescence ratio: 1.01 ± 0.01

CTATACGGCA
switch fluorescence ratio: 1.09 ± 0.011

CTATACTTGG
switch fluorescence ratio: 0.98716 ± 0.00098

CTATATTTTT
switch fluorescence ratio: 1.01 ± 0.025

CTATCATAGT
switch fluorescence ratio: 0.98 ± 0.032

CTATCATCAT
switch fluorescence ratio: 0.9978 ± 0.0084

CTATCTATTG
switch fluorescence ratio: 0.9923 ± 0.0014

CTATGAGTTT
switch fluorescence ratio: 0.993 ± 0.013

CTATGGAGTG
switch fluorescence ratio: 0.9928 ± 0.0039

CTATGTTGGT
switch fluorescence ratio: 0.9562 ± 0.0062

CTATGTTTTG
switch fluorescence ratio: 0.979 ± 0.017

CTATTACTTA
switch fluorescence ratio: 1.02 ± 0.032

CTATTAGATG
switch fluorescence ratio: 0.994 ± 0.03

CTATTAGGGT
switch fluorescence ratio: 0.999 ± 0.052

CTATTGAATC
switch fluorescence ratio: 1.022 ± 0.0015

CTATTGATGG
switch fluorescence ratio: 0.996 ± 0.015

CTATTTAGTC
switch fluorescence ratio: 0.9496 ± 0.0052

CTCAAATATG
switch fluorescence ratio: 1.002 ± 0.0051

CTCACCCGGA
switch fluorescence ratio: 1.18 ± 0.012

CTCACGACGT
switch fluorescence ratio: 1.07 ± 0.019

CTCACTATGA
switch fluorescence ratio: 0.99239 ± 0.0009

CTCAGAAACG
switch fluorescence ratio: 1.03 ± 0.04

CTCAGATGAT
switch fluorescence ratio: 0.988 ± 0.013

CTCAGGCTTG
switch fluorescence ratio: 0.997 ± 0.052

CTCAGGTGTT
switch fluorescence ratio: 1.73 ± 1

CTCATAGCGC
switch fluorescence ratio: 1.02 ± 0.035

CTCATATTCA
switch fluorescence ratio: 1.02 ± 0.027

CTCATTAAGG
switch fluorescence ratio: 1.01 ± 0.016

CTCCAAGTGA
switch fluorescence ratio: 1.315 ± 0.0062

CTCCAATAGT
switch fluorescence ratio: 1.79 ± 0.044

CTCCGAATTT
switch fluorescence ratio: 2.17 ± 0.35

CTCCGAGGGG
switch fluorescence ratio: 1.31 ± 0.21

CTCCGGGCGA
switch fluorescence ratio: 4.47 ± 1

CTCCGGGGTT
switch fluorescence ratio: 1.85 ± 0.35

CTCCTAAATG
switch fluorescence ratio: 1.19 ± 0.015

CTCCTAGTCA
switch fluorescence ratio: 1.05 ± 0.061

CTCCTCGTGC
switch fluorescence ratio: 3.49 ± 0.47

CTCCTGGACT
switch fluorescence ratio: 1.069 ± 0.0061

CTCGAAGTTG
switch fluorescence ratio: 0.9692 ± 0.0025

CTCGCCAGGG
switch fluorescence ratio: 1.41 ± 0.032

CTCGGACGGG
switch fluorescence ratio: 0.995 ± 0.046

CTCGGGATGG
switch fluorescence ratio: 1.74 ± 0.98

CTCGGGCATT
switch fluorescence ratio: 1.23 ± 0.052

CTCGGGGATG
switch fluorescence ratio: 0.976 ± 0.013

CTCGGGGTTG
switch fluorescence ratio: 1.022 ± 0.008

CTCGTAGCAG
switch fluorescence ratio: 1.17 ± 0.013

CTCGTCCCCG
switch fluorescence ratio: 0.994 ± 0.06

CTCGTGCCCG
switch fluorescence ratio: 1.05 ± 0.075

CTCGTGGCGG
switch fluorescence ratio: 1.02 ± 0.076

CTCGTTCTAT
switch fluorescence ratio: 1.002 ± 0.0057

CTCGTTGAAG
switch fluorescence ratio: 0.979 ± 0.032

CTCGTTGGGG
switch fluorescence ratio: 0.979 ± 0.015

CTCGTTGTGG
switch fluorescence ratio: 1.25 ± 0.37

CTCTAAGT
switch fluorescence ratio: 1.01 ± 0.017

CTCTAGCTTT
switch fluorescence ratio: 1.09 ± 0.075

CTCTATTGTG
switch fluorescence ratio: 0.964 ± 0.027

CTCTCAAGGT
switch fluorescence ratio: 1.05 ± 0.018

CTCTGAAATC
switch fluorescence ratio: 2.997 ± 0.01

CTCTGAGGGC
switch fluorescence ratio: 1.07 ± 0.057

CTCTGCGTCA
switch fluorescence ratio: 1.32 ± 0.025

CTCTGTATGT
switch fluorescence ratio: 1.035 ± 0.0081

CTCTGTGGAC
switch fluorescence ratio: 2.11 ± 0.27

CTCTGTTACA
switch fluorescence ratio: 1.04 ± 0.038

CTCTTGTGTT
switch fluorescence ratio: 1.02 ± 0.048

CTCTTTCTAC
switch fluorescence ratio: 2.05 ± 1.3

CTCTTTGGGG
switch fluorescence ratio: 0.976 ± 0.013

CTGAAACAGC
switch fluorescence ratio: 1.06 ± 0.043

CTGAAAGGGT
switch fluorescence ratio: 1.01 ± 0.011

CTGAAGGATT
switch fluorescence ratio: 1.01 ± 0.011

CTGAAGGGGG
switch fluorescence ratio: 0.967 ± 0.058

CTGAAGTCTG
switch fluorescence ratio: 1.019 ± 0.0084

CTGAATCCTA
switch fluorescence ratio: 1.01 ± 0.017

CTGACACCCG
switch fluorescence ratio: 1.07 ± 0.039

CTGACCGGTC
switch fluorescence ratio: 1.017 ± 0.0087

CTGAGAATGG
switch fluorescence ratio: 1.02 ± 0.011

CTGAGAGAAT
switch fluorescence ratio: 1.27 ± 0.46

CTGAGATCTC
switch fluorescence ratio: 1.02 ± 0.011

CTGAGGCTGA
switch fluorescence ratio: 1.12 ± 0.11

CTGAGGGAAA
switch fluorescence ratio: 0.988 ± 0.029

CTGAGGGAGC
switch fluorescence ratio: 1.09 ± 0.061

CTGATAGTTG
switch fluorescence ratio: 1.04 ± 0.0013

CTGATGGGGT
switch fluorescence ratio: 1 ± 0.013

CTGATGTGGC
switch fluorescence ratio: 1.06 ± 0.011

CTGATGTTTT
switch fluorescence ratio: 0.9747 ± 0.0063

CTGATTACGC
switch fluorescence ratio: 1.37 ± 0.016

CTGATTATGT
switch fluorescence ratio: 1.02 ± 0.015

CTGATTTTAG
switch fluorescence ratio: 1.02 ± 0.071

CTGCAAGGGA
switch fluorescence ratio: 1.06 ± 0.051

CTGCAAGGGT
switch fluorescence ratio: 1.214 ± 0.011

CTGCCAGGTT
switch fluorescence ratio: 1.146 ± 0.0052

CTGCCCTCGC
switch fluorescence ratio: 1.094 ± 0.0089

CTGCTAGACC
switch fluorescence ratio: 1.21 ± 0.036

CTGCTCGTAA
switch fluorescence ratio: 1.99 ± 0.18

CTGCTCTGGG
switch fluorescence ratio: 1.02 ± 0.017

CTGCTGCAGG
switch fluorescence ratio: 1.03 ± 0.044

CTGGAAATTT
switch fluorescence ratio: 1 ± 0.027

CTGGAATCCG
switch fluorescence ratio: 1.08 ± 0.015

CTGGAATTTT
switch fluorescence ratio: 0.9949 ± 0.0028

CTGGACAGTA
switch fluorescence ratio: 1.01 ± 0.027

CTGGACATGT
switch fluorescence ratio: 0.97556 ± 7.2e-05

CTGGATGACA
switch fluorescence ratio: 0.986 ± 0.092

CTGGCAGAAA
switch fluorescence ratio: 1.02 ± 0.043

CTGGCCAGTT
switch fluorescence ratio: 1 ± 0.013

CTGGCGAGGG
switch fluorescence ratio: 1.01 ± 0.026

CTGGCGAGTA
switch fluorescence ratio: 1.01 ± 0.016

CTGGCTGGTG
switch fluorescence ratio: 1.1 ± 0.026

CTGGCTGTCT
switch fluorescence ratio: 1.02 ± 0.036

CTGGCTTGAC
switch fluorescence ratio: 0.983 ± 0.0052

CTGGGACAAA
switch fluorescence ratio: 1.001 ± 0.0016

CTGGGATAGG
switch fluorescence ratio: 1 ± 0.02

CTGGGATATA
switch fluorescence ratio: 1 ± 0.04

CTGGGATTTG
switch fluorescence ratio: 0.997 ± 0.049

CTGGGGGAGT
switch fluorescence ratio: 1 ± 0.012

CTGGGGGATA
switch fluorescence ratio: 1.02 ± 0.036

CTGGGGGGTA
switch fluorescence ratio: 0.997 ± 0.028

CTGGGGTCGG
switch fluorescence ratio: 1 ± 0.052

CTGGGGTGGA
switch fluorescence ratio: 1.01 ± 0.036

CTGGGGTGTA
switch fluorescence ratio: 1.03 ± 0.059

CTGGGTAAGT
switch fluorescence ratio: 1.017 ± 0.0074

CTGGGTATGT
switch fluorescence ratio: 0.959 ± 0.027

CTGGGTATTT
switch fluorescence ratio: 0.999 ± 0.04

CTGGGTGCCG
switch fluorescence ratio: 0.968 ± 0.084

Reference: the supplement of paper PMC10126150
